Measurements as given in the supplement of paper PMC12764529.
± gives the half width of the 95% confidence interval.

Columns and labels:
[1] = folding stability dG unfold (combined trypsin and chymotrypsin); higher = more stable
Procedure, shortened: (§1)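 How resistant each design was to proteolysis was captured as K50, inferred by Bayesian fitting of sequencing counts. Unfolding free energy was then derived relative to a sequence-predicted unfolded-state K50 and a shared folded-state K50, per protease or combined. Digestion used trypsin and chymotrypsin at 11 threefold-diluted concentrations plus a no-protease condition, on mini-proteins under 80 residues without cysteine in a PA-tagged cDNA display construct. Designs were kept only when AlphaFold2 dimer inter-PAE was above 15.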

[2] = folding stability dG unfold from chymotrypsin proteolysis; higher = more stable
Procedure, shortened: as §1

[3] = folding stability dG unfold from trypsin proteolysis; higher = more stable
Procedure, shortened: as §1

Sequence	folding stability dG unfold [1] [kcal/mol]	folding stability dG unfold [2] [kcal/mol]	folding stability dG unfold [3] [kcal/mol]
SAGGMKPGQPWHEIEVQREIDLPPGQISAEEIADLIAELFPGFRVEDFRIEFTGKKWRIDVTIYIPYSAGGS [r8_202_TrROS]	3.14 ± 0.11	3.49 ± 0.039	2.56 ± 0.073
SAGGSAGGSGGKPLLIFTAMNGPEAEELVKKLLEEGGAGPIVAVVIPAPKDDPLFKEFFEKLKSAGGSAGGS [r12_649_TrMRF]	1.34 ± 0.14	1.47 ± 0.053	0.935 ± 0.073
SVKVEVSISYDPETNTITITVRVYYKDENGNWTEVATITITIKIELPPPPPKTITLKPGVKTKEEAKKALSA [r9_888_TrROS_Hall]	3.01 ± 0.23	3.54 ± 0.26	2.63 ± 0.28
SAGGSAGGSMTLIGTTTLPSPDGSLVTVDTYKVPGSDELVAKVTTLNGTTWTTETRPLSEFLKSAGGSAGGS [r12_1063_JUSTAS]	0.646 ± 0.1	0.913 ± 0.14	0.188 ± 0.081
SLIEALRAALEAGADEVTLRIVMPEEEAEELEKALEDLGFEIVSRERVEVDGRRYLVMEIRLRAPPPEEPSA [r9_498_TrROS_Hall]	4.59 ± 0.1	4.93 ± 0.084	3.92 ± 0.095
SAGGVITIRIPGIDNRNPETMRSKAVEIADRLRDHGVTVTDVEWDPDQGSMTITVMLPGQSLEDILKSAGGS [r8_344_TrROS]	2.42 ± 0.084	2.69 ± 0.051	1.89 ± 0.062
WKIVEITDIEPDPDGWLEIKITIEPPEPGDPIKIMIFHPNQFHEFEIDPESPEIEIRIPPGFDNLHIFIYVS [r1_428_TrROS]	3.9 ± 0.57	4.42 ± 0.2	2.82 ± 0.24
SAGGSAMTTTTSTDPATNKTYVTVTFPKDEALVEEVKEELKKKGIKEIKVYEFPENDLVRVEITVGSAGGSA [r2_358_JUSTAS]	0.685 ± 0.14	0.767 ± 0.13	0.452 ± 0.098
SAGGKPKKTILIPLIVPPGKPESAIKALAEFLEAKGYELERIEPVPVGDRLRLVAIFRKPDGTEIKVGSAGG [r13_421_TrMRF]	1.78 ± 0.069	1.9 ± 0.11	1.66 ± 0.037
SAGGMEIKIENIEINPDKKTIQYNFEIYHDGQPFKMDISIEVDPKNGLYKITVTYPDFPGVKHTLYIPSAGG [r13_615_TrROS]	5.35 ± 0.54	5.27 ± 0.15	3.38 ± 0.23
SAGGSMVSEEEIKEIVEKTAAELPEDAVEPVTVTIELPNPDGTTTVLTITITRSPTSISYTVSSSPAASAGG [r19_220_JUSTAS]	3.34 ± 0.039	3.27 ± 0.048	3.56 ± 0.11
SPTVTETTLIASEEDPSSGVKTELTETTTIVKVGGTTTEVTTTTTTLTPEEDGKGTSTVTPSTTTTPIPASA [r9_375_JUSTAS]	1.29 ± 0.12	1.45 ± 0.12	0.84 ± 0.079
SAGGSAGGSAGGMITVEVEVPGDEAEAEARREAIAEELAAEGHEDVPITVTFVSPEEAASAGGSAGGSAGGS [r10_1099_JUSTAS]	0.64 ± 0.36	0.388 ± 0.047	1.28 ± 0.11
SAGQTIRIDEIYPHPDGFLIKIRYPDGKVHTFPIKPNMPITVDGDTITITFPGGPITIPLENMEIEILPSAG [r5_999_TrROS]	3.24 ± 0.064	3.17 ± 0.039	3.28 ± 0.069
SAGGGSVSITLELEEEEEIEEIVNEKGIPEPLEKRIKKKVTITISPPPTLSSSSSVTGLAEKAIEEKSAGGS [r16_359_JUSTAS]	0.101 ± 0.31	0.511 ± 0.069	-0.425 ± 0.22
SAGGSAGGSAGGPITSIDTSGPVITVTATTPGGSVTMDVPPDLTLEEVEALLKANPELLNSAGGSAGGSAGG [r7_373_JUSTAS]	0.788 ± 0.087	-0.265 ± 0.12	1.41 ± 0.072

Sequence	folding stability dG unfold [1] [kcal/mol]	folding stability dG unfold [2] [kcal/mol]	folding stability dG unfold [3] [kcal/mol]
SAGNWKIEIKVKHRRTPDGYYRVTARIQIWDPKNGKPLREIPIEGPFDSPEQAERRARKKAKEILKALSAGG [r19_255_TrROS]	2.74 ± 0.13	2.71 ± 0.044	2.97 ± 0.068
SKVIYVPPGATVEEILAAIKANKGKTVTIVMSREELERLKKALEEAGYEVEEVKVFEEEPYVVVKIKVKPSA [r9_1138_TrROS_Hall]	3.84 ± 0.18	3.72 ± 0.12	4 ± 0.17
SAGGSAGGSAGGMPGVTTTSTTTTTLPNGTVVTTTTTTVLLPTGTTVTVTVTTTTSATTSSAGGSAGGSAGG [r11_274_JUSTAS]	2.68 ± 0.12	2.61 ± 0.088	2.77 ± 0.11
SAGGSAGGSSVEVTEDPSTGKLTVTVPPDLTSVTIKEKDKTITIPLPPGASITLPSGTVTVALSAGGSAGGS [r20_26_JUSTAS]	0.935 ± 0.1	-0.168 ± 0.1	1.56 ± 0.059
SWNLRLEIEEVEIEPSDNWIIIMVRVEIEGRNPDDPNKPRPVFEVWVMIPIPLPPPKPKPDPDDPAAAKDSA [r9_357_TrROS]	2.8 ± 0.43	3.5 ± 0.15	2.29 ± 0.25
SAGGSAGGSSFSVEVIENPDSDVILRKIHFDNFTVIPLFDPSTGKIVSVVVQFPDGSWYTFPLSAGGSAGGS [r12_563_TrMRF]	2.51 ± 0.11	2.78 ± 0.053	2.18 ± 0.1
SAGGSAGGSAGGSITITTEPLPSGGRRVTVTLPGSSVVLELEFSPDETEEEVRAAVEAASAGGSAGGSAGGS [r10_825_JUSTAS]	1.93 ± 0.09	2.12 ± 0.06	1.47 ± 0.035
SAGGSAGGSAGDDGSDLPVVDLKVSISPFVRPLPNGEEVTVWKVLVENPGSSSRSEFYFGSAGGSAGGSAGG [r17_59_TrMRF]	0.283 ± 0.15	0.118 ± 0.19	0.337 ± 0.12
SAGGSAGGSAGGGKSITKVYTLPNGGKAVAVYNPETGKVEVYFFKPNGKLLEKKTFKAKSAGGSAGGSAGGS [r10_1044_TrMRF]	2.51 ± 0.11	2.84 ± 0.07	2.18 ± 0.068
SAGGSAGGSMEEIIEEIKKKVPKDKYAEIEIEVPFPDGSKKKFKIKFYPETNEFEVEELEEIPSAGGSAGGS [r12_305_TrMRF]	3.88 ± 0.24	4.12 ± 0.23	3.12 ± 0.26
SAGGSPMRIRDVEIEEFDPDAGRIEIRFPSNGNTIKIPIPPGHKSLKIKIRMKNGEPFEQTITIPPSAGGSA [r2_132_TrROS]	1.01 ± 0.22	1.08 ± 0.12	0.578 ± 0.14
SAGGSPGSSLIGKKKLTIKVDNKDVEVEVTTSLSFLPSNQVTTSTEVKITLPNGKKIPKSLVEKLLSAGGSA [r2_363_JUSTAS]	0.742 ± 0.12	0.66 ± 0.17	0.711 ± 0.044
SAGGSAGGEEAREAIEQELRARGINVTEIKVEEKKLTPDKTVVTFTVTARLPDSELTSTFTVVDSAGGSAGG [r6_533_JUSTAS]	-0.173 ± 0.13	-0.92 ± 0.81	0.141 ± 0.19
SAGGSAGGSAGKKVKISLILIAKSPEEAEEAAKAIKEAFGSEDVEVDIIEIPAKLGPGKLSAGGSAGGSAGG [r17_285_TrMRF]	0.378 ± 0.26	0.252 ± 0.12	0.319 ± 0.072
SAGMTLIIRVKVYNKDGELVEEREIEVPNMSVEEIAEALKKLPNVEKVKIEVFNADGEKKEIEIEVKPSAGG [r19_269_TrROS_Hall]	4.1 ± 0.09	4.43 ± 0.064	3.08 ± 0.13
